B1: glmS ribozyme (parent)
chain: AUAAAAGCGCCAGAACUACAGAAAUGUAGUUGACGAGGAGGAGGUUUAUCGAAUUUUCGGCGGAUGCCUCCAAA

± gives the standard error. For part of these data: Fewer inactive variants are shown than the library holds.

Conditions in all cases: with glucosamine-6-phosphate
Data set [1] covers variants of B1. As to the kind of experiment: self-cleavage kobs at 40 uM GlcN6P; higher = faster cleavage; RNA array. In a few lines: (§1)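 Barcoded ribozyme variants were transcribed in situ on sequenced MiSeq chips by E. coli RNA polymerase. At 37 °C, a hybridised Cy3 probe tracked them while glucosamine-6-phosphate (40 μM to 10 mM) in HEPES/KCl/Mg(OAc)2 buffer flowed in and tiles were imaged over ~14 h. Per-tile medians of signals normalised to baseline and to non-cleaving reference variants were fit to one- or two-exponential decays, giving kobs. kcat and KM came from weighted Michaelis–Menten fits across concentrations.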

The variants in data set [2] derive from B1. As to the kind of experiment: self-cleavage kobs at 160 uM GlcN6P; higher = faster cleavage; RNA array. In a few lines: as §1
The variants in data set [3] derive from B1. As to the kind of experiment: self-cleavage kobs at 640 uM GlcN6P; higher = faster cleavage; RNA array. In a few lines: as §1
In data set [4] the parent is B1. As to the kind of experiment: self-cleavage kobs at 2500 uM GlcN6P; higher = faster cleavage; RNA array. In a few lines:
as §1

The variants in data set [5] derive from B1. As to the kind of experiment: self-cleavage kobs at 10000 uM GlcN6P; higher = faster cleavage; RNA array. In a few lines: as §1
Data set [6] covers variants of B1. As to the kind of experiment: kcat; higher = faster cleavage; RNA array. In a few lines: as §1
Data set [7] covers variants of B1. As to the kind of experiment: KM; higher = weaker cofactor use; RNA array. In a few lines:
as §1

For the variant G44A U47C, the “self-cleavage kobs at 40 uM GlcN6P” value with glucosamine-6-phosphate [1] is below 1e-05 s⁻¹. The “self-cleavage kobs at 160 uM GlcN6P” value in the data set with glucosamine-6-phosphate [2] was below 1e-05 s⁻¹. Besides, the “self-cleavage kobs at 640 uM GlcN6P” value with glucosamine-6-phosphate [3] is below 1e-05 s⁻¹. Besides, the “self-cleavage kobs at 2500 uM GlcN6P” value with glucosamine-6-phosphate [4] was below 1e-05 s⁻¹. For the same variant, the “self-cleavage kobs at 10000 uM GlcN6P” value in the data set with glucosamine-6-phosphate [5] was below 1e-05 s⁻¹.
In the case of G35A G44U U65A C70G, the “self-cleavage kobs at 40 uM GlcN6P” value in the data set with glucosamine-6-phosphate [1] is below 1e-05 s⁻¹. Also, the “self-cleavage kobs at 160 uM GlcN6P” value with glucosamine-6-phosphate [2] was below 1e-05 s⁻¹. Moreover, the “self-cleavage kobs at 2500 uM GlcN6P” value with glucosamine-6-phosphate [4] was below 1e-05 s⁻¹.
Regarding C10G U31C, the “self-cleavage kobs at 40 uM GlcN6P” value in the data set with glucosamine-6-phosphate [1] is below 1e-05 s⁻¹. Moreover, the “self-cleavage kobs at 160 uM GlcN6P” value with glucosamine-6-phosphate [2] is below 1e-05 s⁻¹. Also, in the data set with glucosamine-6-phosphate [5], the “self-cleavage kobs at 10000 uM GlcN6P” value was below 1e-05 s⁻¹.
C16U U30G: the “self-cleavage kobs at 40 uM GlcN6P” value with glucosamine-6-phosphate [1] came to 4.04e-05 ± 1.4e-05 s⁻¹. Moreover, in the data set with glucosamine-6-phosphate [2], the “self-cleavage kobs at 160 uM GlcN6P” value came to 6.14e-05 ± 1.5e-05 s⁻¹. In addition, the “self-cleavage kobs at 640 uM GlcN6P” value with glucosamine-6-phosphate [3] amounted to 0.000244 ± 6.5e-05 s⁻¹. Also, the “self-cleavage kobs at 2500 uM GlcN6P” value with glucosamine-6-phosphate [4] amounted to 0.000944 ± 0.00032 s⁻¹. The “self-cleavage kobs at 10000 uM GlcN6P” value in the data set with glucosamine-6-phosphate [5] is 0.00235 ± 0.00062 s⁻¹.
On to G44C U45C, for which the “self-cleavage kobs at 40 uM GlcN6P” value with glucosamine-6-phosphate [1] is below 1e-05 s⁻¹. In addition, the “self-cleavage kobs at 160 uM GlcN6P” value with glucosamine-6-phosphate [2] is below 1e-05 s⁻¹.
For the variant A14G U65C, the turnover number (kcat) (commonly the maximal rate divided by the concentration of active sites) with glucosamine-6-phosphate [6] was determined as 0.00147 ± 0.00035 s⁻¹. For the same variant, the KM (as a rule, the substrate concentration at which the rate is half of its maximum) with glucosamine-6-phosphate [7] was 1120 ± 420 µM. In addition, in the data set with glucosamine-6-phosphate [1], the “self-cleavage kobs at 40 uM GlcN6P” value came to 7.25e-05 ± 1.9e-05 s⁻¹. Further, in the data set with glucosamine-6-phosphate [2], the “self-cleavage kobs at 160 uM GlcN6P” value came to 0.000176 ± 3.5e-05 s⁻¹. The “self-cleavage kobs at 640 uM GlcN6P” value with glucosamine-6-phosphate [3] amounted to 0.000445 ± 9.2e-05 s⁻¹. Also, the “self-cleavage kobs at 2500 uM GlcN6P” value with glucosamine-6-phosphate [4] stood at 0.00142 ± 0.00028 s⁻¹. Besides, the “self-cleavage kobs at 10000 uM GlcN6P” value in the data set with glucosamine-6-phosphate [5] amounted to 0.00124 ± 0.00025 s⁻¹.
On to C11G A53U, for which the “self-cleavage kobs at 40 uM GlcN6P” value with glucosamine-6-phosphate [1] was below 1e-05 s⁻¹.
In the case of A6G A12G G66A, the “self-cleavage kobs at 40 uM GlcN6P” value with glucosamine-6-phosphate [1] is below 1e-05 s⁻¹. Besides, the “self-cleavage kobs at 640 uM GlcN6P” value in the data set with glucosamine-6-phosphate [3] is below 1e-05 s⁻¹.
C34U A52G: the “self-cleavage kobs at 40 uM GlcN6P” value with glucosamine-6-phosphate [1] was below 1e-05 s⁻¹. Moreover, in the data set with glucosamine-6-phosphate [2], the “self-cleavage kobs at 160 uM GlcN6P” value is below 1e-05 s⁻¹. In addition, the “self-cleavage kobs at 10000 uM GlcN6P” value with glucosamine-6-phosphate [5] is below 1e-05 s⁻¹.
As for C10G A15G U30G G63U, in the data set with glucosamine-6-phosphate [1], the “self-cleavage kobs at 40 uM GlcN6P” value is below 1e-05 s⁻¹. Besides, the “self-cleavage kobs at 640 uM GlcN6P” value in the data set with glucosamine-6-phosphate [3] was below 1e-05 s⁻¹. Besides, the “self-cleavage kobs at 10000 uM GlcN6P” value with glucosamine-6-phosphate [5] is below 1e-05 s⁻¹.
As to G62A C71A, the “self-cleavage kobs at 40 uM GlcN6P” value in the data set with glucosamine-6-phosphate [1] was below 1e-05 s⁻¹. Further, in the data set with glucosamine-6-phosphate [5], the “self-cleavage kobs at 10000 uM GlcN6P” value is below 1e-05 s⁻¹.
For G32A G37C A42U, the “self-cleavage kobs at 40 uM GlcN6P” value in the data set with glucosamine-6-phosphate [1] was below 1e-05 s⁻¹.
With A36U A53U, in the data set with glucosamine-6-phosphate [7], the KM was determined as 148 ± 37 µM.
U54G U56C: in the data set with glucosamine-6-phosphate [1], the “self-cleavage kobs at 40 uM GlcN6P” value turned out to be 6.58e-05 ± 1.3e-05 s⁻¹. Besides, the “self-cleavage kobs at 160 uM GlcN6P” value with glucosamine-6-phosphate [2] was 0.000146 ± 2.8e-05 s⁻¹. The “self-cleavage kobs at 640 uM GlcN6P” value with glucosamine-6-phosphate [3] is 0.000986 ± 0.00024 s⁻¹. Moreover, the “self-cleavage kobs at 2500 uM GlcN6P” value with glucosamine-6-phosphate [4] is 0.00123 ± 0.00029 s⁻¹. In addition, the “self-cleavage kobs at 10000 uM GlcN6P” value with glucosamine-6-phosphate [5] turned out to be 0.00518 ± 0.0011 s⁻¹.
In the case of G9C C16U U47G C61U, in the data set with glucosamine-6-phosphate [1], the “self-cleavage kobs at 40 uM GlcN6P” value was below 1e-05 s⁻¹. Moreover, in the data set with glucosamine-6-phosphate [5], the “self-cleavage kobs at 10000 uM GlcN6P” value is below 1e-05 s⁻¹.
For the variant U30C A48U, the “self-cleavage kobs at 40 uM GlcN6P” value in the data set with glucosamine-6-phosphate [1] was below 1e-05 s⁻¹. The “self-cleavage kobs at 160 uM GlcN6P” value in the data set with glucosamine-6-phosphate [2] is below 1e-05 s⁻¹. In the data set with glucosamine-6-phosphate [3], the “self-cleavage kobs at 640 uM GlcN6P” value was below 1e-05 s⁻¹. Besides, the “self-cleavage kobs at 10000 uM GlcN6P” value with glucosamine-6-phosphate [5] is below 1e-05 s⁻¹.
Regarding C8U G29U, the “self-cleavage kobs at 40 uM GlcN6P” value with glucosamine-6-phosphate [1] was below 1e-05 s⁻¹. Further, the “self-cleavage kobs at 160 uM GlcN6P” value in the data set with glucosamine-6-phosphate [2] is below 1e-05 s⁻¹. Moreover, in the data set with glucosamine-6-phosphate [3], the “self-cleavage kobs at 640 uM GlcN6P” value was below 1e-05 s⁻¹. Moreover, in the data set with glucosamine-6-phosphate [4], the “self-cleavage kobs at 2500 uM GlcN6P” value is below 1e-05 s⁻¹. Also, the “self-cleavage kobs at 10000 uM GlcN6P” value with glucosamine-6-phosphate [5] was below 1e-05 s⁻¹.
Turning to A6C C50G C61G, the “self-cleavage kobs at 40 uM GlcN6P” value with glucosamine-6-phosphate [1] stood at 0.000119 ± 3.4e-05 s⁻¹. The “self-cleavage kobs at 160 uM GlcN6P” value with glucosamine-6-phosphate [2] was found to be 0.000251 ± 7.8e-05 s⁻¹. Moreover, the “self-cleavage kobs at 640 uM GlcN6P” value with glucosamine-6-phosphate [3] amounted to 0.00102 ± 0.00025 s⁻¹. In the data set with glucosamine-6-phosphate [4], the “self-cleavage kobs at 2500 uM GlcN6P” value came out at 0.000289 ± 0.0001 s⁻¹. The “self-cleavage kobs at 10000 uM GlcN6P” value with glucosamine-6-phosphate [5] was 0.000343 ± 6.1e-05 s⁻¹.
For C10G G29A U54G, the “self-cleavage kobs at 40 uM GlcN6P” value in the data set with glucosamine-6-phosphate [1] is below 1e-05 s⁻¹.
Turning to C16U A42U U45C G59A C68U, in the data set with glucosamine-6-phosphate [1], the “self-cleavage kobs at 40 uM GlcN6P” value is below 1e-05 s⁻¹. In addition, the “self-cleavage kobs at 10000 uM GlcN6P” value with glucosamine-6-phosphate [5] is below 1e-05 s⁻¹.
As to C10U A33G, in the data set with glucosamine-6-phosphate [1], the “self-cleavage kobs at 40 uM GlcN6P” value is below 1e-05 s⁻¹. Further, the “self-cleavage kobs at 160 uM GlcN6P” value with glucosamine-6-phosphate [2] was below 1e-05 s⁻¹. Besides, the “self-cleavage kobs at 640 uM GlcN6P” value in the data set with glucosamine-6-phosphate [3] was below 1e-05 s⁻¹. Further, the “self-cleavage kobs at 10000 uM GlcN6P” value in the data set with glucosamine-6-phosphate [5] is below 1e-05 s⁻¹.
Consider A64C C67U, for which the Michaelis-Menten constant (KM) with glucosamine-6-phosphate [7] came out at 657 ± 190 µM.
Consider C34G G41C G66U, for which the “self-cleavage kobs at 40 uM GlcN6P” value in the data set with glucosamine-6-phosphate [1] was below 1e-05 s⁻¹. Besides, in the data set with glucosamine-6-phosphate [5], the “self-cleavage kobs at 10000 uM GlcN6P” value was below 1e-05 s⁻¹.

The record behind these values is the supplement of paper PMC7125110.
